Tests used:
[1] = biological target: T1, … (RMF) WT1 peptide pulsed on target cells (HLA-02.01 positive T2 cell line; OCI-AML3); experiment: cell-based or functional assay
[2] = biological target: T2, … (VLD) WT1 peptide pulsed on target cells (HLA-02.01 positive T2 cell line; OCI-AML3); experiment: cell-based or functional assay
[3] = biological target: T2, … (VLD) WT1 peptide pulsed on target …; experiment: cell-based or functional assay; remark: listed apart in the source
[4] = biological target: T1, … (RMF) WT1 peptide pulsed on target …; experiment: cell-based or functional assay; remark: listed apart in the source
[5] = biological target: T2, … (VLD) WT1 peptide pulsed on target …; experiment: cell-based or functional assay; remark: listed apart in the source
[6] = biological target: T3, VLD-Tetramer (pMHC tetramer with WT1 peptide …); experiment: flow cytometry, VLD-Tetramer staining of engineered T cells; TRAC RNP only
T3 construct: Staining reagent; also called VLD (Wilms' tumor antigen) tetramer; TCR specific pMHC tetramer
Description: (§1) Four to 12 days after RNP nucleofection, edited T cells (200 ul/200,000 cells) were collected in a 96 well round bottom plate and spun down at 500 g for 5 minutes. Cells were then resuspended in an antibody mixture containing a combination of antibodies targeting CD3, CD4, CD8, CD45RO, CD45RA, CD27, CCR7, CD62L, and/or the TCR specific pMHC tetramer or TCR specific Vbeta chain antibody. The mixture was incubated for 45 minutes at room temperature in the dark. Samples were spun down at 500 g for 5 minutes, cell pellets collected, and resuspended in 1:10,000 DAPI (Biolegend—#422801) in FACS buffer. Flow cytometry was then performed using the cytoflex according to the manufacturer's instructions.
(§2) T cells were evaluated with additional engineered TCRs for the impact of endogenous beta chains on pairing of both the inserted alpha chain and inserted beta chain. The experiment was performed as described herein except tetramer staining was used to measure MFI and the AAV inserts in Table 31 were used for transduction.

[7] = biological target: T3, VLD-Tetramer (pMHC tetramer with WT1 …); experiment: flow cytometry, VLD-Tetramer staining of engineered T cells; TRAC + TRBC RNP
Description: as §1, §2

[8] = biological target: T1, … (RMF) WT1 peptide pulsed on target …; experiment: cell-based or functional assay; remark: listed apart in the source
[9] = biological target: T2, … (VLD) WT1 peptide pulsed on target …; experiment: cell-based or functional assay; remark: listed apart in the source
[10] = biological target: T2, … (VLD) WT1 peptide pulsed on target …; experiment: cell-based or functional assay; remark: listed apart in the source

B1: TCR-A (WT1-specific T-cell receptor) (TCR)
TCR alpha: SQQPVQSPQAVILREGEDAVINCSSSKALYSVHWYRQKHGEAPVFLMILLKGGEQKGHEKISASFNEKKQQSSLYLTASQLSYSGTYFCGTAWINDYKLSFGAGTTVTVRANIQNPDPAVYQLRDSKSSDKSVCLFTDFDSQTNVSQSKDSDVYITDKTVLDMRSMDFKSNSAVAWSNKSDFACANAFNNSIIPEDTFFPSPESSCDVKLVEKSFETDTNLNFQNLSVIGFRILLLKVAGFNLLMTLRLWSS
TCR beta: DAGVIQSPRHEVTEMGQEVTLRCKPISGHDYLFWYRQTMMRGLELLIYFNNNVPIDDSGMPEDRFSAKMPNASFSTLKIQPSEPRDSAVYFCASRKTGGYSNQPQHFGDGTRLSILEDLKNVFPPEVAVFEPSEAEISHTQKATLVCLATGFYPDHVELSWWVNGKEVHSGVSTDPQPLKEQPALNDSRYCLSSRLRVSATFWQNPRNHFRCQVQFYGLSENDEWTQDRAKPVTQIVSAEAWGRADCGFTSESYQQGVLSATILYEILLGKATLYAVLVSALVLMAMVKRKDSRG
notes: P2A remnant on the beta chain is not described; also called AV11-TCR-A; TCR-A (no cys)
- % CD4+ CD107a+; TRAC/TRBC; 50 nM RMF; T2 [1]: 4.3%
- % CD8+ CD107a+; TRAC/TRBC; 50 nM RMF; T2 [1]: 22.1%
- % CD4+ CD107a+; TRAC/TRBC; 0 nM VLD; T2 [2]: 4.45%
- % CD4+ CD107a+; TRAC/TRBC; 0.005 nM VLD; T2 [2]: 4.64%
- % CD4+ CD107a+; TRAC/TRBC; 0.05 nM VLD; T2 [2]: 4.68%
- % CD4+ CD107a+; TRAC/TRBC; 0.5 nM VLD; T2 [2]: 4.23%
- % CD4+ CD107a+; TRAC/TRBC; 5 nM VLD; T2 [2]: 11.8%
- % CD4+ CD107a+; TRAC/TRBC; 50 nM VLD; T2 [2]: 21.1%
- % CD8+ CD107a+; TRAC/TRBC; 0 nM VLD; T2 [2]: 21.9%
- % CD8+ CD107a+; TRAC/TRBC; 0.005 nM VLD; T2 [2]: 37.3%
- % CD8+ CD107a+; TRAC/TRBC; 0.05 nM VLD; T2 [2]: 64.1%
- % CD8+ CD107a+; TRAC/TRBC; 0.5 nM VLD; T2 [2]: 73%
- % CD8+ CD107a+; TRAC/TRBC; 5 nM VLD; T2 [2]: 75.8%
- % CD8+ CD107a+; TRAC/TRBC; 50 nM VLD; T2 [2]: 76.2%
- IL2 release; TRAC only; 0 nM VLD; T2 [3]: 2.26 pg/mL
- IL2 release; TRAC only; 0.005 nM VLD; T2 [3]: 2250 pg/mL
- IL2 release; TRAC only; 0.05 nM VLD; T2 [3]: 2050 pg/mL
- IL2 release; TRAC only; 0.5 nM VLD; T2 [3]: 2010 pg/mL
- IL2 release; TRAC only; 5 nM VLD; T2 [3]: 4270 pg/mL
- IL2 release; TRAC only; 50 nM VLD; T2 [3]: 7060 pg/mL
- IL2 release; TRAC only; 500 nM VLD; T2 [3]: 8380 pg/mL
- IL2 release; TRAC/TRBC; 0 nM VLD; T2 [3]: 314 pg/mL
- IL2 release; TRAC/TRBC; 0.005 nM VLD; T2 [3]: 304 pg/mL
- IL2 release; TRAC/TRBC; 0.05 nM VLD; T2 [3]: 227 pg/mL
- IL2 release; TRAC/TRBC; 0.5 nM VLD; T2 [3]: 200 pg/mL
- IL2 release; TRAC/TRBC; 5 nM VLD; T2 [3]: 494 pg/mL
- IL2 release; TRAC/TRBC; 50 nM VLD; T2 [3]: 1180 pg/mL
- IL2 release; TRAC/TRBC; 500 nM VLD; T2 [3]: 1510 pg/mL
- Caspase 3/7 integrated intensity; TRAC only; 500 nM RMF; T2 [4]: 7340
- Caspase 3/7 integrated intensity; TRAC/TRBC; 500 nM RMF; T2 [4]: 280000
- Caspase 3/7 integrated intensity; TRAC only; 0 nM VLD; T2 [5]: 9040
- Caspase 3/7 integrated intensity; TRAC only; 0.005 nM VLD; T2 [5]: 9180
- Caspase 3/7 integrated intensity; TRAC only; 0.05 nM VLD; T2 [5]: 16900
- Caspase 3/7 integrated intensity; TRAC only; 0.5 nM VLD; T2 [5]: 38800
- Caspase 3/7 integrated intensity; TRAC only; 5 nM VLD; T2 [5]: 137000
- Caspase 3/7 integrated intensity; TRAC only; 50 nM VLD; T2 [5]: 207000
- Caspase 3/7 integrated intensity; TRAC only; 500 nM VLD; T2 [5]: 233000
- Caspase 3/7 integrated intensity; TRAC/TRBC; 0 nM VLD; T2 [5]: 381000
- Caspase 3/7 integrated intensity; TRAC/TRBC; 0.005 nM VLD; T2 [5]: 374000
- Caspase 3/7 integrated intensity; TRAC/TRBC; 0.05 nM VLD; T2 [5]: 1.13e+06
- Caspase 3/7 integrated intensity; TRAC/TRBC; 0.5 nM VLD; T2 [5]: 1.17e+06
- Caspase 3/7 integrated intensity; TRAC/TRBC; 5 nM VLD; T2 [5]: 1.33e+06
- Caspase 3/7 integrated intensity; TRAC/TRBC; 50 nM VLD; T2 [5]: 1.2e+06
- Caspase 3/7 integrated intensity; TRAC/TRBC; 500 nM VLD; T2 [5]: 1.57e+06
- Mean % Tetramer+ (CD4+) [6]: 7.6%
- Mean % Tetramer+ (CD8+) [6]: 12.7%
- Mean Tetramer MFI (CD4+) [6]: 10100 MFI
- Mean Tetramer MFI (CD8+) [6]: 21900 MFI
- Mean % Tetramer+ (CD4+) [7]: 48%
- Mean % Tetramer+ (CD8+) [7]: 51.2%
- Mean Tetramer MFI (CD4+) [7]: 11300 MFI
- Mean Tetramer MFI (CD8+) [7]: 23700 MFI
- % CD4+ TNFa+ IFNg+; TRAC/TRBC; 50 nM RMF; T2 [8]: 1.6%
- % CD8+ TNFa+ IFNg+; TRAC/TRBC; 50 nM RMF; T2 [8]: 10%
- % CD4+ TNFa+ IFNg+; TRAC/TRBC; 0 nM VLD; T2 [9]: 1.1%
- % CD4+ TNFa+ IFNg+; TRAC/TRBC; 0.005 nM VLD; T2 [9]: 1.6%
- % CD4+ TNFa+ IFNg+; TRAC/TRBC; 0.05 nM VLD; T2 [9]: 1.2%
- % CD4+ TNFa+ IFNg+; TRAC/TRBC; 0.5 nM VLD; T2 [9]: 1.8%
- % CD4+ TNFa+ IFNg+; TRAC/TRBC; 5 nM VLD; T2 [9]: 11.1%
- % CD4+ TNFa+ IFNg+; TRAC/TRBC; 50 nM VLD; T2 [9]: 25.1%
- % CD8+ TNFa+ IFNg+; TRAC/TRBC; 0 nM VLD; T2 [9]: 9.4%
- % CD8+ TNFa+ IFNg+; TRAC/TRBC; 0.005 nM VLD; T2 [9]: 21%
- % CD8+ TNFa+ IFNg+; TRAC/TRBC; 0.05 nM VLD; T2 [9]: 53%
- % CD8+ TNFa+ IFNg+; TRAC/TRBC; 0.5 nM VLD; T2 [9]: 74.3%
- % CD8+ TNFa+ IFNg+; TRAC/TRBC; 5 nM VLD; T2 [9]: 79.8%
- % CD8+ TNFa+ IFNg+; TRAC/TRBC; 50 nM VLD; T2 [9]: 81.3%
- IFN-gamma release; TRAC/TRBC; 50 nM VLD; T2 [10]: 40200
- IFN-gamma release; TRAC/TRBC; 500 nM VLD; T2 [10]: 47600
- IFN-gamma release; only TRAC; 50 nM VLD; T2 [10]: 28100
- IFN-gamma release; only TRAC; 500 nM VLD; T2 [10]: 31500

From US20210340530A1 (INTELLIA THERAPEUTICS, published 2021)
